Laboratory results as given in FireProtDB (doi:10.1093/protein/15.10.817).
“And” between values parts separate entries of the source, which are not always exact repeats. Equal values may be shown once.

B1: High mobility group protein B1, P63159 (parent)
chain: MGKGDPKKPRGKMSSYAFFVQTCREEHKKKHPDASVNFSEFSKKCSERWKTMSAKEKGKFEDMAKADKARYEREMKTYIPPKGETKKKFKDPNAPKRPPSAFFLFCSEYRPKIKGEHPGLSIGDVAKKLGEMWNNTAADDKQPYEKKAAKLKEKYEKDIAAYRAKGKPDAAKKGVVKAEKSKKKKEEEDDEEDEEDEEEEEEEEDEDEEEDDDDE

Variants of: B1
Details: Rattus norvegicus, pH 7, Thermal, CD, HEPES 10 mM, structure 1HME, whole UniProt chain shown; for ddG of mutation (higher = less stable) / unfolding free energy: 20 °C

Variant	ddG of mutation (higher = less stable) (NiSO4 1 mM)	unfolding free energy (NiSO4 1 mM)	ddG of mutation (higher = less stable)	unfolding free energy	Tm (NiSO4 1 mM)	change of melting temperature, mutant - wild type (higher = more stable) (NiSO4 1 mM)	unfolding enthalpy (van 't Hoff) (NiSO4 1 mM)	Tm	unfolding enthalpy (van 't Hoff)	change of melting temperature, mutant - wild type (higher = more stable)
MGKGDPKKPRGKMSSYAFFVQTCREEHKKKHPDASVNFSEFSKKCSERWKTMSAKEKGKFEDMAKADKARYEREMKTYIPPKGETKKKFKDPNAPKRPPSAFFLFCSEYRPKIKGEHPGLSIHDVAKKLGEMWNNTAADDKQPYEKKAAKLKEKYEKDIAAYRAKGKPDAAKKGVVKAEKSKKKKEEEDDEEDEEDEEEEEEEEDEDEEEDDDDE [G123H]	-0.47 kcal/mol	3.17 kcal/mol	0.34 kcal/mol	2.36 kcal/mol	44.9 °C	4.3 °C	36.8 kcal/mol			
MGKGDPKKPRGKMSSYAFFVQTCREEHKKKHPDASVNFSEFSKKCSERWKTMSAKEKGKFEDMAKADKARYEREMKTYIPPKGETKKKFKDPNAPKRPPSAFFLFCSEYRPKIKGEHPGLSIGDVAKKLGEMWNHTAAHDKQPYEKKAAKLKEKYEKDIAAYRAKGKPDAAKKGVVKAEKSKKKKEEEDDEEDEEDEEEEEEEEDEDEEEDDDDE [N135H D139H]		1.74 kcal/mol and 4.04 kcal/mol and 4.32 kcal/mol		1.69 kcal/mol and 2.42 kcal/mol and 1.67 kcal/mol				39 °C and 36.3 °C	35.8 kcal/mol and 32.3 kcal/mol	
MGKGDPKKPRGKMSSYAFFVQTCREEHKKKHPDASVNFSEFSKKCSERWKTMSAKEKGKFEDMAKADKARYEREMKTYIPPKGETKKKFKDPNAPKRPPSAFFLFCSEYRPKIKGEHPGLSIGDVAKKLGEMWNNTAADHKQPYEKKAAKLKEKYEKDIAAYRAKGKPDAAKKGVVKAEKSKKKKEEEDDEEDEEDEEEEEEEEDEDEEEDDDDE [D140H]	-0.95 kcal/mol	3.65 kcal/mol			46.8 °C	6.2 °C	36.8 kcal/mol	38.2 °C	33 kcal/mol	-2.4 °C
MGKGDPKKPRGKMSSYAFFVQTCREEHKKKHPDASVNFSEFSKKCSERWKTMSAKEKGKFEDMAKADKARYEREMKTYIPPKGETKKKFKDPNAPKRPPSAFFLFCSEYRPKIKGEHPGLSHGDVAKKLGEMWNNTAADDKQPYEKKAAKLKEKYEKDIAAYRAKGKPDAAKKGVVKAEKSKKKKEEEDDEEDEEDEEEEEEEEDEDEEEDDDDE [I122H]	0 kcal/mol	2.7 kcal/mol	1.23 kcal/mol	1.74 kcal/mol	41.9 °C	1.3 °C	34.2 kcal/mol	36.2 °C	33.6 kcal/mol	-4.4 °C
MGKGDPKKPRGKMSSYAFFVQTCREEHKKKHPDASVNFSEFSKKCSERWKTMSAKEKGKFEDMAKADKARYEREMKTYIPPKGETKKKFKDPNAPKRPPSAFFLFCSEYRPKIKGEHPGLSIGDVAKKLGEMWNNTAAHDKQPYEKKAAKLKEKYEKDIAAYRAKGKPDAAKKGVVKAEKSKKKKEEEDDEEDEEDEEEEEEEEDEDEEEDDDDE [D139H]	-0.97 kcal/mol	3.67 kcal/mol	-0.27 kcal/mol	2.97 kcal/mol	46.8 °C	6.2 °C	41 kcal/mol	41.1 °C	38.3 kcal/mol	0.5 °C
MGKGDPKKPRGKMSSYAFFVQTCREEHKKKHPDASVNFSEFSKKCSERWKTMSAKEKGKFEDMAKADKARYEREMKTYIPPKGETKKKFKDPNAPKRPPSAFFLFCSEYRPKIKGEHPGLSIGDVAKKLGEMWNHTAADHKQPYEKKAAKLKEKYEKDIAAYRAKGKPDAAKKGVVKAEKSKKKKEEEDDEEDEEDEEEEEEEEDEDEEEDDDDE [N135H D140H]		1.8 kcal/mol and 2.46 kcal/mol	1.3 kcal/mol and 1.2 kcal/mol	1.4 kcal/mol and 1.5 kcal/mol				34.3 °C and 35.3 °C	33.1 kcal/mol and 31.5 kcal/mol	-6.3 °C and -5.3 °C
MGKGDPKKPRGKMSSYAFFVQTCREEHKKKHPDASVNFSEFSKKCSERWKTMSAKEKGKFEDMAKADKARYEREMKTYIPPKGETKKKFKDPNAPKRPPSAFFLFCSEYRPKIKGEHPGLHIGDVAKKLGEMWNNTAADDKQPYEKKAAKLKEKYEKDIAAYRAKGKPDAAKKGVVKAEKSKKKKEEEDDEEDEEDEEEEEEEEDEDEEEDDDDE [S121H]	1.5 kcal/mol	1.2 kcal/mol	1.85 kcal/mol	0.85 kcal/mol	34.4 °C	-6.2 °C	31.4 kcal/mol	30.4 °C	28.2 kcal/mol	-10.2 °C
